Experimental data reported in paper PMC5498027.

target: taxol-stabilized microtubules polymerized from bovine brain tubulin (bovine) (UniProt Q6B856); assay: not given

Sequence of human Kif5A, first 560 amino acids, wild type, fused to EGFP and a C-terminal 6xHIS tag (Q12840 1-560): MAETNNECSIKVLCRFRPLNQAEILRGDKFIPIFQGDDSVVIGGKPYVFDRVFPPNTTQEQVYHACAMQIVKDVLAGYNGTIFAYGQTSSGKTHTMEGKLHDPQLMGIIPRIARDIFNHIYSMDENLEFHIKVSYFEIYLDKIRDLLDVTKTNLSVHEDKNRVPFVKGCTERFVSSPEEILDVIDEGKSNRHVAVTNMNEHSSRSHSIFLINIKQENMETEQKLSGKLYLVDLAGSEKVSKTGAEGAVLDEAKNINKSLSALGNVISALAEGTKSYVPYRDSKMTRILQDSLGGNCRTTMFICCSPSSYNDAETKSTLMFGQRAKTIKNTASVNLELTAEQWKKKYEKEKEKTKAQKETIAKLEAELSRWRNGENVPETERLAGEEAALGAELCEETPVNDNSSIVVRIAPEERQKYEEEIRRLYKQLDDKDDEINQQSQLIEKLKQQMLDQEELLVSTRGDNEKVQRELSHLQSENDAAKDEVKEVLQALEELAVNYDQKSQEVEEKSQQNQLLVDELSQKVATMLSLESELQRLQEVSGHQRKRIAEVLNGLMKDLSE

-fold increase of the ATPase rate by MTs (MT-stimulated over basal; malachite green phosphate assay, microtubules from 2 uM tubulin) [fold]	Substance
6.2	human Kif5A, first 560 amino acids, E251K, fused to EGFP and a C-terminal 6xHIS tag (from UniProt Q12840 1-560) (domain or fragment)
42.6	human Kif5A, first 560 amino acids, M198T, fused to EGFP and a C-terminal 6xHIS tag (from UniProt Q12840 1-560) (domain or fragment)
10.6	human Kif5A, first 560 amino acids, R204Q, fused to EGFP and a C-terminal 6xHIS tag (from UniProt Q12840 1-560) (domain or fragment)
5.4	human Kif5A, first 560 amino acids, S202N, fused to EGFP and a C-terminal 6xHIS tag (from UniProt Q12840 1-560) (domain or fragment)
23.5	human Kif5A, first 560 amino acids, S203C, fused to EGFP and a C-terminal 6xHIS tag (from UniProt Q12840 1-560) (domain or fragment)
33.2	human Kif5A, first 560 amino acids, wild type, fused to EGFP and a C-terminal 6xHIS tag (from UniProt Q12840 1-560) (domain or fragment)

target: taxol-stabilized microtubules polymerized from bovine brain tubulin (bovine) (UniProt Q6B856); assay: co-sedimentation; microtubule pelleting assay as with ATP but with 5 mM AMPPNP: 1 uM Kif5A, tubulin 0-8 uM (WT) or 0-20 uM (mutants), 20 uM taxol, room temperature 15 min; fraction Kif5A bound by western blot densitometry

percent bound at saturation [%]	Substance
100	human Kif5A, first 560 amino acids, wild type, fused to EGFP and a C-terminal 6xHIS tag (from UniProt Q12840 1-560) (domain or fragment)
